Among the data in the RNAGym collection of RNA variant scans (doi:10.1093/nar/gkz1192) are self-cleavage values, retold here.

Sequences and labels used below:
B1: CPEB3 Ribozyme (parent)
chain: UAACAGGGGGCCACAGCAGAAGCGUUCACGUCGCAGCCCCUGUCAGAUUCUGGUGAAUCUGCGAAUUCUGCUGUAUAUCUC

The data set covers variants of B1. Description: self-cleavage, relative activity (ratio to wild type); higher = more cleavage; in vitro, sequencing. The gist of the method:
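CPEB3 self-cleaving ribozyme mutant libraries were made by rounds of error-prone PCR, barcoded, and transcribed in vitro with T7 RNA polymerase for 5 hours at 37°C. Cleavage occurred during transcription and a 15 min DNase I step before EDTA stop. RNAs were reverse transcribed with template switching and Illumina-sequenced, with DNA sequencing mapping barcodes to variants. Relative activity is the variant's cleaved/total read fraction divided by wild type's (minimum 5 reads), averaged across three batches.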
Regarding A13G U26A, the self-cleavage was found to be 0.85. On to G33A A57C, for which the self-cleavage stood at 0.11. Regarding A15G A65U, the self-cleavage worked out at 0.23. The figure for C62U C71U is 0.22.

As for C34U G70A, the self-cleavage stood at 0.14. The figure for G8U U72A is 0.07; for C44U U69C it is 0.17.

Take G8U G24U: the self-cleavage came out at 0.13. In the case of C29U U66A, the self-cleavage worked out at 0.22. Consider A2U U31A, for which the self-cleavage was 0.48. In the case of G7A U51G, the self-cleavage is 0.1. Then G6A A21U, with 0.31; and U26C A45U, with 0.26; and G22A U76C, with 0.25. Consider U67C U78C, for which the self-cleavage stood at 0.35.

With G9U A45U, the self-cleavage worked out at 0.04.

Regarding A5C U31C, the self-cleavage was 0.8. For U25A G63U, the self-cleavage was determined as 0.2. Take C39A A47G: the self-cleavage is 0.35. As for A57U A64G, the self-cleavage worked out at 0.75. Take U43G U72C: the self-cleavage was 0.33. For U26C C37G, the self-cleavage came out at 0.71. In the case of G10A A35G, the self-cleavage came to 0.55.

Take G8U C32U: the self-cleavage was found to be 0.14. Consider U41G A57G, for which the self-cleavage is 0.23.

For the variant C23U A28G, the self-cleavage was 0.26.

Take A21G A65C: the self-cleavage was found to be 0.12. Turning to G10A U67C, the self-cleavage amounted to 0.25. G10A U80A: the self-cleavage came out at 0.06.

In the case of A15C A18G, the self-cleavage is 0.41.

As for A5C U25C, the self-cleavage stood at 0.15. For U41A U58G, the self-cleavage is 0.23. For the variant A2G A64U, the self-cleavage was 0.33. As for U54A U80A, the self-cleavage was found to be 1.21. Consider C27U U58C, for which the self-cleavage is 0.15. Consider C34U U67C, for which the self-cleavage turned out to be 0.12. The figure for C29G U67C is 0.12; for G22A G52U it is 0.38. Regarding A35C U54C, the self-cleavage turned out to be 0.8. As to C32U C59U, the self-cleavage is 0.12. A65U U72G: the self-cleavage turned out to be 0.33.

For the variant A5C U60C, the self-cleavage came out at 0.64.

Regarding C38U A57G, the self-cleavage came to 0.39. Then U43C U67C, with 0.2; and G8A U60A, with 0.18; and A18U U31A, with 0.3.

G10U A35U: the self-cleavage came out at 0.05. Regarding G7A U78G, the self-cleavage is 0.08. G30U A35G: the self-cleavage came out at 0.05. On to A18U U26C, for which the self-cleavage is 0.26. As for U43C A57G, the self-cleavage worked out at 0.3.

As for G8A A56G, the self-cleavage turned out to be 0.24. On to C11G G55A, for which the self-cleavage was found to be 0.14.

In the case of C4A G16U, the self-cleavage is 0.62.

For C11A U41A, the self-cleavage was determined as 0.33. For the variant A18U U54A, the self-cleavage stood at 0.54.

Turning to A13C G46C, the self-cleavage worked out at 0.18. Turning to A21U G33A, the self-cleavage is 0.09.

With C38G, the self-cleavage was determined as 0.26. C32A C40U: the self-cleavage was 0.2. In the case of A47U U67C, the self-cleavage was 0.3. A5G G6A: the self-cleavage was found to be 0.29. The figure for A65G is 0.52.

Turning to C12U A64G, the self-cleavage turned out to be 1.41. Take U41G U80A: the self-cleavage was 0.26. With C40A A75G, the self-cleavage is 0.47.

For the variant U25C U43C, the self-cleavage was 0.3. For the variant U26C C68U, the self-cleavage stood at 0.5. Take A21U C68A: the self-cleavage turned out to be 0.32. U41A C62A: the self-cleavage was 0.34. C11U U31A: the self-cleavage came to 0.32. As for A21U A64U, the self-cleavage was determined as 0.13.

For the variant G8U U76A, the self-cleavage was 0.28. Take C40A U78C: the self-cleavage turned out to be 0.18.

Consider U41C U78G, for which the self-cleavage was found to be 1.23. Regarding U43G A47U, the self-cleavage is 0.1. On to G63A U80A, for which the self-cleavage was determined as 0.97. As for G9C A15G, the self-cleavage came out at 0.39. For the variant A18G A35C, the self-cleavage was determined as 0.38. Then U31C U76C, with 0.88; and A3G A13U, with 1.02; and A64C A65G, with 0.16. For the variant A35U C38U, the self-cleavage was found to be 0.47.

With A75C U78C, the self-cleavage is 1.15. Regarding C11G A15U, the self-cleavage was found to be 0.39. Then A3U G33A, with 0.16; and C12A A45U, with 0.49; and G10A U72A, with 0.22. Take A56G C62G: the self-cleavage was found to be 0.2. G61U U80C: the self-cleavage was determined as 0.65. The figure for A3G C39A is 0.05; for A20C U74C it is 0.46; for A2U A35U it is 0.49. With A3G G9C, the self-cleavage is 0.6. Then C14U U54G, with 1.16; and A13G U41G, with 0.37.

For the variant U58C U67C, the self-cleavage was 0.29. On to A3G C29G, for which the self-cleavage amounted to 0.43.

Regarding U54C U74A, the self-cleavage is 1.25. Take A45U A56C: the self-cleavage is 0.28. In the case of A3C A47G, the self-cleavage was determined as 1.12. Consider A13C U60A, for which the self-cleavage stood at 0.52. Turning to U49C U67A, the self-cleavage turned out to be 0.28.

For the variant G33C U72A, the self-cleavage came to 0.09. For the variant A3G C62G, the self-cleavage was 0.32.

Take C38A U51A: the self-cleavage worked out at 0.17. As to U76C U80A, the self-cleavage was found to be 1.26.

For G8U A21U, the self-cleavage amounted to 0.17. C11U A65U: the self-cleavage was 0.33. As to U66C U80C, the self-cleavage turned out to be 0.45. The figure for U66C U80G is 0.49. Turning to U26C U49C, the self-cleavage was found to be 0.34. For C11A U69C, the self-cleavage came out at 0.17.

For C14G A65U, the self-cleavage worked out at 0.26. With A56U U60G, the self-cleavage was found to be 0.24.

On to A2G U78A, for which the self-cleavage is 0.75. Regarding A28U G42U, the self-cleavage turned out to be 0.21. In the case of A28U G42A, the self-cleavage was 0.27. As for U43C C44U, the self-cleavage turned out to be 0.38. Turning to U43C C44G, the self-cleavage came to 0.09. Regarding G6A U26A, the self-cleavage stood at 0.19.

For A28G C50U, the self-cleavage turned out to be 0.48.

C14G A20U: the self-cleavage amounted to 0.26. Consider A3C A28G, for which the self-cleavage came to 1.09. Take U51C C81A: the self-cleavage is 1.18. Take U31G U41C: the self-cleavage is 0.33. The figure for U1C A13G is 0.79.

Consider A15G G52A, for which the self-cleavage was found to be 0.99. With C44A U69C, the self-cleavage stood at 0.17. On to A5G A21C, for which the self-cleavage is 0.39.

On to G24A U48C, for which the self-cleavage was determined as 0.22.

For A57G U80A, the self-cleavage amounted to 1.06. In the case of C39U A45U, the self-cleavage is 0.26. Turning to A28U C29G, the self-cleavage amounted to 0.1. On to U1G A13G, for which the self-cleavage stood at 0.66. For C39U U72A, the self-cleavage is 0.98.

As to C17A U26A, the self-cleavage was found to be 0.36. As to C12A A13G, the self-cleavage is 0.89. The figure for C23G A57G is 0.16; for G19U C50U it is 0.38; for G61A G70U it is 0.12. Then A15G G61A, with 0.34; and A2G U74G, with 1.01. With C17U G61U, the self-cleavage stood at 0.27.

In the case of U49C C50G, the self-cleavage is 0.82. For C14U U49C, the self-cleavage worked out at 0.33. For C40A U43A, the self-cleavage came to 0.45.

As for A64U G73A, the self-cleavage was found to be 0.98. Then C27A C81U, with 0.11; and C40U G70U, with 0.16.

As for U67C U69G, the self-cleavage came to 0.45. For the variant C17U U51G, the self-cleavage is 0.74. Consider C11G A45C, for which the self-cleavage came out at 0.07. As to C29G A65G, the self-cleavage amounted to 0.27. For A65U U69C, the self-cleavage turned out to be 0.45. The figure for U31G U72C is 0.82. The figure for G7U C62G is 0.17; for G46A G73A it is 0.99. For A5U U41A, the self-cleavage was 0.33.

On to A20U C32U, for which the self-cleavage was determined as 0.3. For the variant G24A A75G, the self-cleavage stood at 0.32. With A15G A56C, the self-cleavage worked out at 0.35. The figure for G6C C38A is 0.43; for A3G U66C it is 0.4. With C37A A45C, the self-cleavage is 0.1. Take A5U G24A: the self-cleavage is 0.4. Turning to U26G U48A, the self-cleavage turned out to be 0.37.
